Laboratory results: paper PMC10397247
One block for each binder: values may come before it.

Tests used:
4H3865-AA = biological target: T1, 4H3865-AA; test: two-hybrid library CCmax; conditions: mean of both orientations;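 also: natural log of median RNA to DNA barcode read ratio; higher means stronger binding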
T1 chain: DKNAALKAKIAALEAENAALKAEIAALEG

4H3413-AA = biological target: T2, 4H3413-AA; test: two-hybrid library CCmax;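 also: natural log of median RNA to DNA barcode read ratio; higher means stronger binding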
T2 chain: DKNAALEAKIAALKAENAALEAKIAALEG

4H3606-AA = biological target: T3, 4H3606-AA; test: two-hybrid library CCmax; conditions: mean of both orientations;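 also: natural log of median RNA to DNA barcode read ratio; higher means stronger binding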
T3 chain: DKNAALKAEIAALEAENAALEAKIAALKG

4H3697-AA = biological target: T4, 4H3697-AA; test: two-hybrid library CCmax; conditions: mean of both orientations;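 also: natural log of median RNA to DNA barcode read ratio; higher means stronger binding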
T4 chain: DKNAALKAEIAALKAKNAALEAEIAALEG

4H982-AA = biological target: T5, 4H982-AA; test: two-hybrid library CCmax; conditions: mean of both orientations;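 also: natural log of median RNA to DNA barcode read ratio; higher means stronger binding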
T5 chain: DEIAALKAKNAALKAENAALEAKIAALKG

4H697-AA = biological target: T6, 4H697-AA; test: two-hybrid library CCmax; conditions: mean of both orientations;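 also: natural log of median RNA to DNA barcode read ratio; higher means stronger binding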
T6 chain: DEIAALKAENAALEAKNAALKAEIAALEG

4H3588-AA = biological target: T7, 4H3588-AA; test: two-hybrid library CCmax; conditions: mean of both orientations
T7 chain: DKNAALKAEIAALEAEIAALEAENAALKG

4H3718-AA = biological target: T8, 4H3718-AA; test: two-hybrid library CCmax; conditions: mean of both orientations
T8 chain: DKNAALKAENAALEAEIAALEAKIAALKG

4H3631-AA = biological target: T9, 4H3631-AA; test: two-hybrid library CCmax; conditions: mean of both orientations
T9 chain: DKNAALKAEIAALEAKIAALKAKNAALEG

4H384-AA = biological target: T10, 4H384-AA; test: two-hybrid library CCmax; conditions: mean of both orientations
T10 chain: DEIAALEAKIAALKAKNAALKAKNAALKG

4H3395-AA = biological target: T11, 4H3395-AA; test: two-hybrid library CCmax
T11 chain: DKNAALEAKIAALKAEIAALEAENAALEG

4H310-AA = biological target: T12, 4H310-AA; test: two-hybrid library CCmax; conditions: mean of both orientations
T12 chain: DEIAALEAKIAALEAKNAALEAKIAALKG

4H485-AA = biological target: T13, 4H485-AA; test: two-hybrid library CCmax; conditions: mean of both orientations
T13 chain: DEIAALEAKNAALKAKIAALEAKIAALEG

4H745-AA = biological target: T14, 4H745-AA; test: two-hybrid library CCmax; conditions: mean of both orientations
T14 chain: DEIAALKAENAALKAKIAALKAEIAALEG

4H3130-AA = biological target: T15, 4H3130-AA; test: two-hybrid library CCmax; conditions: mean of both orientations
T15 chain: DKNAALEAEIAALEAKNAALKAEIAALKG

4H909-AA = biological target: T16, 4H909-AA; test: two-hybrid library CCmax; conditions: mean of both orientations
T16 chain: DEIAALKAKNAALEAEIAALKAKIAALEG

4H3120-AA = biological target: T17, 4H3120-AA; test: two-hybrid library CCmax; conditions: mean of both orientations
T17 chain: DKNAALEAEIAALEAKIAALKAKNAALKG

4H850-AA = biological target: T18, 4H850-AA; test: two-hybrid library CCmax; conditions: mean of both orientations
T18 chain: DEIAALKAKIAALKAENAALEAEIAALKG

4H930-AA = biological target: T19, 4H930-AA; test: two-hybrid library CCmax; conditions: mean of both orientations
T19 chain: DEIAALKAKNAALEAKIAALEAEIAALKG

4H3009-AA = biological target: T20, 4H3009-AA; test: two-hybrid library CCmax
T20 chain: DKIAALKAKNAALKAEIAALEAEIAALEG

4H3165-AA = biological target: T21, 4H3165-AA; test: two-hybrid library CCmax; conditions: mean of both orientations
T21 chain: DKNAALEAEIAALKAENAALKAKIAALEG

4H629-AA = biological target: T22, 4H629-AA; test: two-hybrid library CCmax; conditions: mean of both orientations
T22 chain: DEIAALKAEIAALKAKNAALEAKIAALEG

4H570-AA = biological target: T23, 4H570-AA; test: two-hybrid library CCmax; conditions: mean of both orientations
T23 chain: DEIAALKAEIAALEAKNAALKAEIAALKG

4H797-AA = biological target: T24, 4H797-AA; test: two-hybrid library CCmax; conditions: mean of both orientations
T24 chain: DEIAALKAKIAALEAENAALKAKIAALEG

4H3590-AA = biological target: T25, 4H3590-AA; test: two-hybrid library CCmax; conditions: mean of both orientations
T25 chain: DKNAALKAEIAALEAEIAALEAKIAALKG

4H3381-AA = biological target: T26, 4H3381-AA; test: two-hybrid library CCmax; conditions: mean of both orientations
T26 chain: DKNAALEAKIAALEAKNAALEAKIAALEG

4H536-AA = biological target: T27, 4H536-AA; test: two-hybrid library CCmax; conditions: mean of both orientations
T27 chain: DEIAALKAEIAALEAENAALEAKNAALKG

4H3410-AA = biological target: T28, 4H3410-AA; test: two-hybrid library CCmax; conditions: mean of both orientations
T28 chain: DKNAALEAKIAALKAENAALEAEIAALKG

4H891-AA = biological target: T29, 4H891-AA; test: two-hybrid library CCmax
T29 chain: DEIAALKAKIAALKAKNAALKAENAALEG

4H3016-AA = biological target: T30, 4H3016-AA; test: two-hybrid library CCmax; conditions: mean of both orientations
T30 chain: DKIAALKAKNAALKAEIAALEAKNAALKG

4H710-AA = biological target: T31, 4H710-AA; test: two-hybrid library CCmax; conditions: mean of both orientations
T31 chain: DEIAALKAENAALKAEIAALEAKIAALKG

4H3753-AA = biological target: T32, 4H3753-AA; test: two-hybrid library CCmax; conditions: mean of both orientations
T32 chain: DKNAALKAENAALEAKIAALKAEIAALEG

4H458-AA = biological target: T33, 4H458-AA; test: two-hybrid library CCmax; conditions: mean of both orientations
T33 chain: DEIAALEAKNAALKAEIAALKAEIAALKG

4H94-AA = biological target: T34, 4H94-AA; test: two-hybrid library CCmax; conditions: mean of both orientations
T34 chain: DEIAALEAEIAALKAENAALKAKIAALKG

4H949-bA = biological target: T35, 4H949-bA; test: two-hybrid library CCNG1
T35 chain: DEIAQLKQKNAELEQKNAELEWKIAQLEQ

4H949-bN = biological target: T36, 4H949-bN; test: two-hybrid library CCNG1
T36 chain: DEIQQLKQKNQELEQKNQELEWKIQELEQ

4H932-bN = biological target: T37, 4H932-bN; test: two-hybrid library CCNG1
T37 chain: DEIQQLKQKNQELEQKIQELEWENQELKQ

- interaction score (4H3865-AA): 0.0208
- interaction score (4H3413-AA): 0.362
- interaction score (4H3606-AA): 1.14
- interaction score (4H3697-AA): -0.722
- interaction score (4H982-AA): -1.39
- interaction score (4H697-AA): -0.828
- interaction score (4H3588-AA): -1.34
- interaction score (4H3718-AA): -1.38
- interaction score (4H3631-AA): -1.19
- interaction score (4H384-AA): -0.506
Binder: DKNAALEAKIAALKAENAALEAKIAALEG [4H3413-AA]

- interaction score (4H3395-AA): -1.73
- interaction score (4H310-AA): -0.567
- interaction score (4H485-AA): 1.22
- interaction score (4H745-AA): 1.77
- interaction score (4H3865-AA): -1.6
- interaction score (4H3130-AA): -0.967
- interaction score (4H909-AA): 0.523
- interaction score (4H3697-AA): 0.129
- interaction score (4H3120-AA): -0.531
- interaction score (4H850-AA): 1.63
- interaction score (4H930-AA): -0.0462
- interaction score (4H3009-AA): 2.25
- interaction score (4H3165-AA): -1.43
- interaction score (4H629-AA): 1.67
- interaction score (4H570-AA): -0.427
- interaction score (4H797-AA): -1.65
- interaction score (4H3590-AA): 0.389
- interaction score (4H3381-AA): -1.54
- interaction score (4H536-AA): -1.35
- interaction score (4H3410-AA): 0.321
- interaction score (4H891-AA): -1.57
- interaction score (4H3016-AA): -1.16
- interaction score (4H710-AA): 1.94
- interaction score (4H3753-AA): 1.09
- interaction score (4H458-AA): 0.956
- interaction score (4H94-AA): -0.794
Binder: DKIAALKAKNAALKAEIAALEAEIAALEG [4H3009-AA]

- interaction score (4H949-bA): -0.253
Binder: DEIAQLKQKNAELEQKNAELEWKIAQLEQ [4H949-bA]

- interaction score (4H949-bN): -1.08
- interaction score (4H932-bN): 1.01
Binder: DEIQQLKQKNQELEQKIQELEWENQELKQ [4H932-bN]
